Tested on: T1, His-OsWOX3A (Oryza sativa), ORF:198cabac
T1 sequence: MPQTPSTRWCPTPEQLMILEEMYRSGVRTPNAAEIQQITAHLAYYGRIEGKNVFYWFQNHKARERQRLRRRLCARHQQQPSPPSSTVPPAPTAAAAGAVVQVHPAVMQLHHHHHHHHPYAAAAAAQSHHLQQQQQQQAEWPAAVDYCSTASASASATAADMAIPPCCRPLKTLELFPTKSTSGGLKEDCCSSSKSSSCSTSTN
Test: EMSA
Conditions: 10 mM Tris pH 7.5, 50 mM KCl, 1 mM DTT (from 10x buffer) plus about 50 mM KCl, 5 mM MgCl2, 10 mM EDTA, 2.5% glycerol, 0.05% NP-40, 50 ng/ul poly(dG-dC); room …

TACAAAACTCACTACTAGTAATTAAGTGTTGAGGGTTCGAGAACAAATTAATTAATCGCCAAATAATGCATCACAAACATCATCAACCTAGTTATCGGTT (double strand) [KAO-W1]
binding: binds

From PMC4783357
